{"source": "paper PMC8476643", "about": "(Nature Communications, 2021)", "key": {"[1]": {"target": "T1, SARS-CoV two-proline stabilized S trimer (S-2P) (SARS-CoV (GenBank NC_004718.3), UniProt P59594, stabilised)", "T1 construct": "also called SARS-CoV S-2P", "test": "SPR", "conditions": "both partners purified"}, "[2]": {"target": "T1, SARS-CoV two-proline stabilized S …", "test": "SPR", "conditions": "both partners purified", "remark": "listed apart in the source"}}}
{"binder": "7D6 monoclonal antibody (antibody, V domains shown, also called mAb 7D6; source: mouse hybridoma, ascites, purified (protein A agarose); copies: 2 + 2) VH: EVQLQQSGAELVRPGASVKLSCTASGFNIKDTYIHWVKQRPEQGLEWIGRIDPGDGDTEYDPSFQGKATITADTSSNTAYLELSSLTSEDTAVYYCTRFYDYVDYGMDYWGQGTSVTVSS VL: DIQMTQSPASLSASVGETVTITCRASGNIHNYLAWYQQKQGKSPQLLVYNAKTLADGVPSRFSGSGSGTQYSLKINSLQPEDFGSYYCQHFWSTPPWTFGGGTKLEVK", "values": [{"measurement": "Kd", "setting": "[1]", "value": 5.88, "unit": "nM"}, {"measurement": "Kd", "setting": "[2]", "value": 5.04, "unit": "nM"}, {"measurement": "koff", "setting": "[2]", "value": 0.000241, "unit": "s⁻¹"}, {"measurement": "kon", "setting": "[2]", "value": 47800, "unit": "M⁻¹ s⁻¹"}]}
{"binder": "6D6 monoclonal antibody (antibody, V domains shown, also called mAb 6D6; source: mouse hybridoma, ascites, purified (protein A agarose); copies: 2 + 2) VH: EVQLQQSGAELVKPGASVKLSCTTSGFNIIDTYMHWVKQRPEEGLEWIGGIDPVNGNSEYDPKFQDKATITADTSSNTAYLHLSRLTSEDTAVYYCASAHYYGSSSSFPYWGQGTLVTVSA VL: DIVMTQSQKFMSTSVGDRVSVTCKASQNVGTHVAWYQQKPGQSPKALIYSASYRYSGVPDRFTGSGVGTDFTLTITNVQSEDLAEYFCQQYNSYFTFGSGTKLEIK", "values": [{"measurement": "Kd", "setting": "[2]", "value": 2.14, "unit": "nM"}, {"measurement": "koff", "setting": "[2]", "value": "5.56e-05", "unit": "s⁻¹"}, {"measurement": "kon", "setting": "[2]", "value": 30600, "unit": "M⁻¹ s⁻¹"}]}
